Laboratory results as given in publication PMC8827656.
Several values for one entry are separate records, joined by “and”; a condition that tells them apart may be missing. Identical values can stand only once.

Experiments:
[1] = target: photosystem I (PSI) complex from FRL-acclimated Chlorogloeopsis fritschii PCC 9212 (C. fritschii PCC 9212 (endogenous in the cells)); test: atomic force microscopy; thylakoid membrane patches from 20-50% sucrose gradients with 0.1% digitonin, adsorbed on mica; PeakForce mode under liquid; 10 mM Hepes pH 7.5, 100 mM KCl; oligomer assigned from heights, nearest-neighbour angles and lateral distances
[2] = target: photosystem I (PSI) complex from FRL-acclimated Chlorogloeopsis fritschii PCC 9212 (C. fritschii PCC 9212 (endogenous in the cells)); test: sucrose gradient sedimentation + negative-stain TEM; thylakoid membranes solubilised with 1% DDM, 5-20% sucrose gradients with 0.05% DDM, 140,000g for 12-16 h at 4°C; bands negatively stained with uranyl acetate and imaged by TEM
[3] = target: photosystem I (PSI) complex from FRL-acclimated Chroococcidiopsis thermalis PCC 7203 (C. thermalis PCC 7203 (endogenous in the cells)); test: native gel or EMSA; BN-PAGE; thylakoid membranes solubilised with 0.4 or 2% DDM, 4-16% NativePAGE gels
[4] = target: photosystem I (PSI) complex from FRL-acclimated Chroococcidiopsis thermalis PCC 7203 (C. thermalis PCC 7203 (endogenous in the cells)); test: atomic force microscopy; thylakoid membrane patches from 20-50% sucrose gradients with 0.1% digitonin, adsorbed on mica; PeakForce mode under liquid; 10 mM Hepes pH 7.5, 100 mM KCl; oligomer assigned from heights, nearest-neighbour angles and lateral distances
[5] = target: photosystem I (PSI) complex from FRL-acclimated Chroococcidiopsis thermalis PCC 7203 (C. thermalis PCC 7203 (endogenous in the cells)); test: sucrose gradient sedimentation + negative-stain TEM; thylakoid membranes solubilised with 1% DDM, 5-20% sucrose gradients with 0.05% DDM, 140,000g for 12-16 h at 4°C; bands negatively stained with uranyl acetate and imaged by TEM
[6] = target: photosystem I (PSI) complex from FRL-acclimated Synechococcus sp. PCC 7335 (Synechococcus sp. PCC 7335 (endogenous in the cells)); test: sucrose gradient sedimentation; thylakoid membranes solubilised with 1% DDM, 5-20% sucrose gradients with 0.05% DDM, 140,000g for 12-16 h at 4°C; bands assigned by position (fig. S3B), no TEM told
[7] = target: photosystem I (PSI) complex from FRL-acclimated Synechococcus sp. PCC 7335 (Synechococcus sp. PCC 7335 (endogenous in the cells)); test: atomic force microscopy; thylakoid membrane patches from 20-50% sucrose gradients with 0.1% digitonin, adsorbed on mica; PeakForce mode under liquid; 10 mM Hepes pH 7.5, 100 mM KCl; oligomer assigned from heights, nearest-neighbour angles and lateral distances
[8] = target: photosystem I (PSI) complex from white-light-grown Chlorogloeopsis fritschii PCC 9212 (C. fritschii PCC 9212 (endogenous in the cells)); test: as above
[9] = target: photosystem I (PSI) complex from white-light-grown Chlorogloeopsis fritschii PCC 9212 (C. fritschii PCC 9212 (endogenous in the cells)); test: sucrose gradient sedimentation + negative-stain TEM; thylakoid membranes solubilised with 1% DDM, 5-20% sucrose gradients with 0.05% DDM, 140,000g for 12-16 h at 4°C; bands negatively stained with uranyl acetate and imaged by TEM
[10] = target: photosystem I (PSI) complex from white-light-grown Chroococcidiopsis thermalis PCC 7203 (C. thermalis PCC 7203 (endogenous in the cells)); test: native gel or EMSA; BN-PAGE; thylakoid membranes solubilised with 0.4 or 2% DDM, 4-16% NativePAGE gels
[11] = target: photosystem I (PSI) complex from white-light-grown Chroococcidiopsis thermalis PCC 7203 (C. thermalis PCC 7203 (endogenous in the cells)); test: atomic force microscopy; thylakoid membrane patches from 20-50% sucrose gradients with 0.1% digitonin, adsorbed on mica; PeakForce mode under liquid; 10 mM Hepes pH 7.5, 100 mM KCl; oligomer assigned from heights, nearest-neighbour angles and lateral distances
[12] = target: photosystem I (PSI) complex from white-light-grown Synechococcus sp. PCC 7335 (Synechococcus sp. PCC 7335 (endogenous in the cells)); test: as above
[13] = target: photosystem I (PSI) complex from white-light-grown Synechococcus sp. PCC 7335 (Synechococcus sp. PCC 7335 (endogenous in the cells)); test: sucrose gradient sedimentation; thylakoid membranes solubilised with 1% DDM, 5-20% sucrose gradients with 0.05% DDM, 140,000g for 12-16 h at 4°C; bands assigned by position (fig. S3B), no TEM told
[14] = target: photosystem I (PSI) complex from white-light-grown Synechococcus sp. PCC 7335 (Synechococcus sp. PCC 7335 (endogenous in the cells)); test: atomic force microscopy; thylakoid membrane patches from 20-50% sucrose gradients with 0.1% digitonin, adsorbed on mica; PeakForce mode under liquid; 10 mM Hepes pH 7.5, 100 mM KCl; oligomer assigned from heights, nearest-neighbour angles and lateral distances; remark: listed apart in the source
[15] = target: photosystem II (PSII) complex from FRL-acclimated Chroococcidiopsis thermalis PCC 7203 (C. thermalis PCC 7203 (endogenous in the cells)); test: sucrose gradient sedimentation + negative-stain TEM; thylakoid membranes solubilised with 1% DDM, 5-20% sucrose gradients with 0.05% DDM, 140,000g for 12-16 h at 4°C; bands negatively stained with uranyl acetate and imaged by TEM

Q: Which results are given for “photosystem I (PSI) complex from FRL-acclimated Chlorogloeopsis fritschii PCC 9212”?
A: stoichiometry N [1]: 3; stoichiometry N [2]: 3

Q: For “photosystem I (PSI) complex from FRL-acclimated Chroococcidiopsis thermalis PCC 7203”, which stoichiometry N [3] is on record?
A: Its stoichiometry N is 3.

Q: What about the stoichiometry N [4] of the same substance?
A: Its stoichiometry N is 3.

Q: What about the stoichiometry N [5] of the same substance?
A: Its stoichiometry N is 3 and 2.

Q: Which stoichiometry N [6] does the source give for “photosystem I (PSI) complex from FRL-acclimated Synechococcus sp. PCC 7335” here?
A: Its stoichiometry N is 3 and 2.

Q: What about the stoichiometry N [7] of the same substance?
A: Its stoichiometry N is 3.

Q: For “photosystem I (PSI) complex from white-light-grown Chlorogloeopsis fritschii PCC 9212”, which stoichiometry N [8] is on record?
A: Its stoichiometry N is 2.

Q: What about the stoichiometry N [9] of the same substance?
A: Its stoichiometry N is 4 and 2.

Q: What does the source list for “photosystem I (PSI) complex from white-light-grown Chroococcidiopsis thermalis PCC 7203”?
A: stoichiometry N [10]: 2; stoichiometry N [11]: 2

Q: What does the source list for “photosystem I (PSI) complex from white-light-grown Synechococcus sp. PCC 7335”?
A: stoichiometry N [12]: 3; stoichiometry N [13]: 2 and 3 and 4; stoichiometry N [14]: 2

Q: “photosystem II (PSII) complex from FRL-acclimated Chroococcidiopsis thermalis PCC 7203” was tested. Which stoichiometry N [15] did it give?
A: The stoichiometry N was 2.
